The target in one data set is α5β1 integrin (Homo sapiens, UniProt P05556+P08648). The note with it: cited from earlier work.
Another data set has as its target αvβ6 integrin (Homo sapiens, UniProt P06756+P18564). The note with it: cited from earlier work.
Another data set addresses αvβ5 integrin (Homo sapiens, UniProt P06756+P18084). The conditions noted are these: cited from earlier work.
Another data set has as its target αvβ3 integrin (Homo sapiens, UniProt P05106+P06756). The note with it: cited from earlier work.
Data set [1] concerns 5637 bladder cancer cells. In words: MTT competition experiment with free RGD-4C peptide. Type of data set: cell-based, human. The note with it: 0.1 μM RGD-SAP or 1 μM CYS-SAP, 5 μM peptide, 48 and 72 h. As to the method: (§1) Cultured cell lines (5×10^3 cells/well) were seeded in 96 wells plates and incubated for 72 h with various amounts of RGD-SAP or CYS-SAP at 37° C., 5% CO2. Cell viability was then quantified by 3-(4,5-dimethylthiazol-2-yl)-2,5-diphenyltetrazolium bromide staining (MTT) (working solution 0.5 μg/ml). After 1 h of incubation, the supernatants were removed, the formazan crystals were dissolved with dimethyl sulfoxide and the absorbance at 570 nm was measured using a microtiter plate reader. Competitive experiments were performed as described above using 100 nM of RGD-SAP or 1000 nM of CYS-SAP in the presence of 5000 nM of ACDCRGDCFCG peptide for 48 and 72 hours.

The subject of a further data set is normal fibroblasts. As to the kind of experiment: Cell viability assay (MTT), normal fibroblasts. The conditions noted are these: 72 h. The class given is cell-based. As to the method:
as §1
(§2) Cultured cell lines (5×10^3 cells/well) were seeded in 96 wells plates and incubated for 72 h with various amounts of NGR-SAP, RGD-SAP, CgA-SAP, CYS-SAP, ATF-SAP or seed SAP at 37° C., 5% CO2. Cell viability was then quantified by 3-(4,5-dimethylthiazol-2-yl)-2,5-diphenyltetrazolium bromide staining (MTT) (working solution 0.5 μg/ml). After 1 h of incubation, the supernatants were removed, the formazan crystals were dissolved with dimethyl sulfoxide and the absorbance at 570 nm was measured using a microtiter plate reader.

The test system of data set [2] is caspase 3 in 5637 and MDA-MB-468 cells. In words: Caspase 3 activation (western blot). The class given is cell-based, human. The conditions noted are these: 30 nM, 48 and 72 h. As to the method: Cells were washed twice with cold PBS, collected by scraping and centrifuged 5 min at 300 g. Cells were lysed for 30 min on ice in ice-cold buffer (50 mM Tris-HCl, pH 7.5, containing 150 mM NaCl, 2 mM NaF, 1 mM EDTA, 1 mM EGTA, 1 mM Na3VO4, 1 mM PMSF, 75 mU/ml aprotinin (Sigma-Aldrich), 1% TritonX-100 and a proteinase inhibitor Cocktail® (Sigma-Aldrich). Cell lysates were centrifuged at 10000×g at 4° C. for 10 min and the supernatants were recovered and quantified for total protein content. Equal amounts of cell protein extracts were separated by SDS-PAGE under reducing conditions unless stated otherwise. For western blot analysis, proteins were transferred onto a nitrocellulose membrane, incubated with 5% non-fat powdered milk in TBS-T (0.5% Tween-20) for 1 hour and then with the following antibodies: anti-saporin anti-serum (rabbit, 1:5000), anti-caspase 3 (rabbit, 1:2000, clone E87, Abcam), anti-beta actin (mouse, 1:10000, clone AC-15, Sigma-Aldrich). The antibody binding was detected using a secondary horseradish peroxidase conjugated antibodies (donkey anti-mouse/rabbit IgG HRP-linked, GE Healthcare) and an enhanced chemiluminescent (ECL, Merck Millipore).
To induce caspase 3 activation, cells were treated with 30 nM RGD-SAP or 2 mM DTT for 48 and 72 hours.
(In general: Immunoblotting shows a protein as a band on a membrane.)

Another data set deals with subcutaneous MB49 tumors. In words: Subcutaneous syngeneic bladder cancer mouse model. Type of data set: in vivo, C57BL/6 mice. The source says: (§3) Studies on animal models were approved by the Institutional Animal Care and Use Committee (Institutional Animal Care and Use Committee, IACUC) and performed according to the prescribed guidelines. C57BL/6 female mice (7 weeks old, Charles River, Calco, Italy) were challenged with subcutaneous injection in the left flank of 3-5×10^5 MB49 living cells; 5 days later, 4-6 mice/group were intravenously administered with various doses of RGD-SAP or CYS-SAP diluted in sodium chloride (0.9%, i.v., 200 μl). Tumor growth was estimated by calculating the volume using the formula r1×r2×r3×4/3 π, where r1 and r2 are the longitudinal and lateral radii, and r3 is the thickness of tumors protruding from the surface of normal skin. Animals were euthanized when tumors reached 10 mm in diameter, became ulcerated or a 15% animal body weight loss was measured.

A short description of data set [3]: Toxicity in the subcutaneous model (body weight, injection site, serum biochemical parameters). The class given is in vivo, C57BL/6 mice.
Text: as §3
Blood samples were collected from the retroorbital plexus of anesthetized mice using 4% isoflurane at the end of each experiment or before animal sacrifice. Blood samples were left at room temperature for at least 30 min before being processed and then centrifuged (800×g, 10 min) for serum separation. Serum albumin, aspartate transaminase, alanine transaminase, creatinine and urea were determined by using an automated analyzer (ScilVet ABC plus and Idexx Procyte analyzers) according to the manufacturers' instructions. Standard controls were run before each determination.

Data set [4] relates to 5637, RT112, RT4, U87, MDA-MB-468 cancer cell lines. As to the kind of experiment: Cell viability assay (MTT), cancer cell lines. Type of data set: cell-based, human. As to the method: as §1, §2

α5β1 integrin, sequence (P08648 42-1049): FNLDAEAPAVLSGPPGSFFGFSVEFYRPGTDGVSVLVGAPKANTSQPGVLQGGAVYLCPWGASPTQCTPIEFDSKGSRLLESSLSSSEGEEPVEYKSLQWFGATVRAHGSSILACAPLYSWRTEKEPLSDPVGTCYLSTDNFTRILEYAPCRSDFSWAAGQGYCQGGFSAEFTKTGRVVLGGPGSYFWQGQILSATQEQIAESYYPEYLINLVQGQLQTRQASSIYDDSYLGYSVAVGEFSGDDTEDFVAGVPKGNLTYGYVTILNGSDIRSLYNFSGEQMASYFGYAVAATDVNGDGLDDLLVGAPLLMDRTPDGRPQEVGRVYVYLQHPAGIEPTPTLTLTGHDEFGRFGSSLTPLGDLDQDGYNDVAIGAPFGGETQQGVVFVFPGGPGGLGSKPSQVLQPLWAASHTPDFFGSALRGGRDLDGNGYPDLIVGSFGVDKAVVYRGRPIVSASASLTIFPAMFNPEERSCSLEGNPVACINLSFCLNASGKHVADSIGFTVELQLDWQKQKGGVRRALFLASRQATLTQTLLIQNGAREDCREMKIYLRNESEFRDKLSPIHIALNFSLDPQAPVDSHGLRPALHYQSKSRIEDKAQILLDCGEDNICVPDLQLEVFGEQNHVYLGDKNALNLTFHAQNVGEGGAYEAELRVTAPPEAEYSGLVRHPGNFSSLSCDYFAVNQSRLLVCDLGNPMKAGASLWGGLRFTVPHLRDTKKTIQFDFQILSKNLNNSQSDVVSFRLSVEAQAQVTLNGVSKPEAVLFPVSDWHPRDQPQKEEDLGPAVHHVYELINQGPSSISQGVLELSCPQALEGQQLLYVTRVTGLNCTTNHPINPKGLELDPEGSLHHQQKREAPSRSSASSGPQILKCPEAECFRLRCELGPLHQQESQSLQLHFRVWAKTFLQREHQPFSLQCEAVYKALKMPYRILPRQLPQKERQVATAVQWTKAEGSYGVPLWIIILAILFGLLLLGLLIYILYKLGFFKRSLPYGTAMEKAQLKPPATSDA
α5β1 integrin, sequence (P05556 21-798): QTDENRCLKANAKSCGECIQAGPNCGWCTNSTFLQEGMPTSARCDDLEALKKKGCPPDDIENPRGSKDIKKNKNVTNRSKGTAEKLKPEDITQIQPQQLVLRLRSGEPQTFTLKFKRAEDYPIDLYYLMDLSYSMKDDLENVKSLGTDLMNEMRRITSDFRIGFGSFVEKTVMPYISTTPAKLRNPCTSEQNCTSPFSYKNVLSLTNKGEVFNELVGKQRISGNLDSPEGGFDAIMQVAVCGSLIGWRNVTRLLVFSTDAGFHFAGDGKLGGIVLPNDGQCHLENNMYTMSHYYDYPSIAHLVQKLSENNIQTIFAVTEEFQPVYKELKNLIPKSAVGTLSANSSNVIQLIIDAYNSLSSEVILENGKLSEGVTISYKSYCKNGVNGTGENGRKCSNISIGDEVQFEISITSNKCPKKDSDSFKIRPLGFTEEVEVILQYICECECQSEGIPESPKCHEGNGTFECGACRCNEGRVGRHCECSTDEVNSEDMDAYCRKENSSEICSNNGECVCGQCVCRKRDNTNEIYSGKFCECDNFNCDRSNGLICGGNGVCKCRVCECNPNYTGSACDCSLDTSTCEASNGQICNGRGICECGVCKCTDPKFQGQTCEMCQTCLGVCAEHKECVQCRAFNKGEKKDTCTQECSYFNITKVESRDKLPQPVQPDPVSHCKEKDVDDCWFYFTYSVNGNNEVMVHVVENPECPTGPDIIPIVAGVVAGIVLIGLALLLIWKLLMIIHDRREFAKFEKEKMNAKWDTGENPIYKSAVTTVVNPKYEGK
αvβ6 integrin, sequence (P06756 31-1048): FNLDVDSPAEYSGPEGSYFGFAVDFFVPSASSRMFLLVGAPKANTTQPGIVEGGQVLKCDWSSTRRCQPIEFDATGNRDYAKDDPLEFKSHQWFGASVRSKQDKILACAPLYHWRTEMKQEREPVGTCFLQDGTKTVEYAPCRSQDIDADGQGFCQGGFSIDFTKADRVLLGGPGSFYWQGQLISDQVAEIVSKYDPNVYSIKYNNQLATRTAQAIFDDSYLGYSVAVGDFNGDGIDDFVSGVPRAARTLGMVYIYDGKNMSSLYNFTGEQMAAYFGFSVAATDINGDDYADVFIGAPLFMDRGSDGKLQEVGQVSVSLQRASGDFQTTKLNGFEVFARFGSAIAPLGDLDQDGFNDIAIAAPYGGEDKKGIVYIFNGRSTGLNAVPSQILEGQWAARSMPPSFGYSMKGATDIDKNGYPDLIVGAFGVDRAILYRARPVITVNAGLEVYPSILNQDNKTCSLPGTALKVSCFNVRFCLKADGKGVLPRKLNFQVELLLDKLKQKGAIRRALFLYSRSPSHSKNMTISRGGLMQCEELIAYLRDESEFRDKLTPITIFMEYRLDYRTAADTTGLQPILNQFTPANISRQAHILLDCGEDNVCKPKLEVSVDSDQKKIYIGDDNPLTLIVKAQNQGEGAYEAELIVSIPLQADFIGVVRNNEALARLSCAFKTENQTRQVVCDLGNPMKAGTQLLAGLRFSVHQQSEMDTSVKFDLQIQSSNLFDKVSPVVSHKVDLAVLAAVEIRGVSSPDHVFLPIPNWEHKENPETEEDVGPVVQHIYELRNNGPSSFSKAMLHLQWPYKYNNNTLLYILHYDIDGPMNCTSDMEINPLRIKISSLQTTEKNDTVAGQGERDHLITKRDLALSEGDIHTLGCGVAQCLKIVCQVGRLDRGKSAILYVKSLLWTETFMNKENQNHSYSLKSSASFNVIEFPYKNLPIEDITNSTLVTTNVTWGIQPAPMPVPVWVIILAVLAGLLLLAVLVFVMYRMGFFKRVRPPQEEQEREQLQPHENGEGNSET
αvβ6 integrin, sequence (P18564 22-788): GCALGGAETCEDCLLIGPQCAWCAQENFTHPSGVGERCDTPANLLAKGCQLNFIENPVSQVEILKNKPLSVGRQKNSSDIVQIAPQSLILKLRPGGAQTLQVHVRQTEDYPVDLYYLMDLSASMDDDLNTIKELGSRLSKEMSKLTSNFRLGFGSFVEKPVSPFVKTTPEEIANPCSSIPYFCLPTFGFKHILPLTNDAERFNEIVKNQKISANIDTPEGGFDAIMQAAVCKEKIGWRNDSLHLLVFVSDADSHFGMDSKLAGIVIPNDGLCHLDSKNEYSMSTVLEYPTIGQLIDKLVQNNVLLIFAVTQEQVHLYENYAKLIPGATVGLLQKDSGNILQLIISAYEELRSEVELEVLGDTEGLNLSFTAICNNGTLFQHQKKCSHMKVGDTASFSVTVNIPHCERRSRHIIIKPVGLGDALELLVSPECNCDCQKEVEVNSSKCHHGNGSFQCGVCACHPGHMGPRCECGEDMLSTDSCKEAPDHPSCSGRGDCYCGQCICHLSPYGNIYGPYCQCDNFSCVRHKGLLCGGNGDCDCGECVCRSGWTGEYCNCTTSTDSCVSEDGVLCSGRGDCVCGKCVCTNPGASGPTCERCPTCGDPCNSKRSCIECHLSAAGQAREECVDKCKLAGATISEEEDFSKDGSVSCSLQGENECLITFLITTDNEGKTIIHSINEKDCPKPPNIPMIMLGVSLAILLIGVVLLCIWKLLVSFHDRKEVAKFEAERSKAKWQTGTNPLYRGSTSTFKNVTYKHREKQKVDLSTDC
αvβ3 integrin, sequence (P06756 31-1048): as the sequence (P06756 31-1048) above
αvβ3 integrin, sequence (P05106 27-788): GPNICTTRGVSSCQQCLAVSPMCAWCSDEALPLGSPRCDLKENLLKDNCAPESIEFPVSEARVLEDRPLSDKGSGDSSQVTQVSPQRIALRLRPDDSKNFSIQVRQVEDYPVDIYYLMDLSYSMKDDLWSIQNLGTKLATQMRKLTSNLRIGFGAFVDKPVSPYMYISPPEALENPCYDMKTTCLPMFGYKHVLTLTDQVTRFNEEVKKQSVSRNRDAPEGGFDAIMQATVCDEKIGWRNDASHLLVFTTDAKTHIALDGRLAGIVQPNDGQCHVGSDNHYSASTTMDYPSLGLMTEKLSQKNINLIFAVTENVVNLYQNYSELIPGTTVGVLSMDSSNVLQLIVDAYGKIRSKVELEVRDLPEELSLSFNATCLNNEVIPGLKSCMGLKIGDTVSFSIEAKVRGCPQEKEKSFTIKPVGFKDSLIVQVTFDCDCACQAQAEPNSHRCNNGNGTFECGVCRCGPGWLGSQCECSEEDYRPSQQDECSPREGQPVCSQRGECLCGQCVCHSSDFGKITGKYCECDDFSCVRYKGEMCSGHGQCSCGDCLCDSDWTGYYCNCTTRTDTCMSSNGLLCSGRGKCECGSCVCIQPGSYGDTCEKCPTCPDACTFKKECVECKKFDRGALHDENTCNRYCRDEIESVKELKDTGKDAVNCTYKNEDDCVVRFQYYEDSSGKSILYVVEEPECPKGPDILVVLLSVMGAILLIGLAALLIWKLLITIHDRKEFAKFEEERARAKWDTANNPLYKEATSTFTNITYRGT

“RGD-4C: ACDCRGDCFCG peptide (SEQ ID NO: 2), an αv-integrin ligand”: the affinity value is on record as 244 nM with α5β1 integrin, 380 nM with αvβ6 integrin, 46 nM with αvβ5 integrin and 8.3 nM with αvβ3 integrin.

B1: RGD-SAP: RGD-4C (ACDCRGDCFCG) fused via GGSSRSS linker to N-terminus of saporin, C-terminal VDK and 6xHis tag; SEQ ID NO: 6 (protein)
chain: ACDCRGDCFCGGGSSRSSVTSITLDLVNPTAGQYSSFVDKIRNNVKDPNLKYGGTDIAVIGPPSKEKFLRINFQSSRGTVSLGLKRDNLYVVAYLAMDNTNVNRAYYFKSEITSAELTALFPEATTANQKALEYTEDYQSIEKNAQITQGDKSRKELGLGIDLLLTFMEAVNKKARVVKNEARFLLIAIQMTAEVARFRYIQNLVTKNFPNKFDSDNKVIQFEVSWRKISTAIYGDAKNGVFNKDYDFGFGKVRQVKDLQMGLLMYLGKPKVDKHHHHHH
As for B1, the “effect of excess free RGD-4C peptide on cytotoxic activity” value in [1] is on record as “significantly decreased the activity”. The “cytotoxic effect compared to CYS-SAP” value in the data set with normal fibroblasts is “but not with normal fibroblasts”; in data set [4] (MTT, 72 h, all cancer cells), “stronger cytotoxic effect”. In addition, the “caspase 3 activation” value in [2] is “caspase 3 activation was detectable as cleaved form”. Further, the “effect on tumor growth” value in the data set on subcutaneous MB49 tumors (0.25 mg/kg i.v., days 5, 10, 15) is on record as “but not 0.25 mg/kg”; in the data set on subcutaneous MB49 tumors (0.5 mg/kg i.v., days 5, 10, 15), “significant delay of tumor growth”; with subcutaneous MB49 tumors (0.75 mg/kg i.v., days 5, 10, 15) it was “significant delay of tumor growth”; in the data set on subcutaneous MB49 tumors (1 mg/kg i.v., three times every five days from day 5) it was “marked reduction of the tumor volume in all mice”. The “survival, hazard ratio versus vehicle” value with subcutaneous MB49 tumors (0.75 mg/kg, Mantel-Cox log-rank, 95% CI 1.19-23.10) worked out at 5.25. In addition, the complete tumor eradication in the data set on subcutaneous MB49 tumors (1 mg/kg i.v., end of experiment day 19, n=4) is 1 tumor undetectable and complete eradication in one mouse. Further, the “serum AST and CHE versus vehicle” value in data set [3] (1 mg/kg) is on record as “significantly higher values”. In addition, the body weight result in [3] (1 mg/kg i.v., day 19) is on record as “loss of body weight”; in data set [3] (0.75 and 0.5 mg/kg i.v., days 5, 10, 15), “without causing loss of body weight”. In data set [3] (1 mg/kg i.v., tails), the injection site reaction entry is recorded as “severe necrosis in the tails”. The “systemic toxicity (liver and kidney serum parameters)” value in [3] (0.25-1 mg/kg) was “dose dependent and apparent only with the highest dose used”. The “sensitivity of U87 cells compared with the other cell lines” value in data set [4] (U87, highest amount of αvβ3) is reported as “most sensitive”.
